“And” between values parts separate entries of the source, which are not always exact repeats. Equal entries are not always repeated. Where no end group is shown, it is not given here.
Key:
[1] = target: all four species: aggregated HD49, aggregated HD21, soluble GST-HD49 and GST-HD21 Htt Exon 1 proteins; test: direct ELISA, coated at 5 µg/ml
GST-HttExon1Q21 (human) = GST-HttExon1Q21 (human) (UniProt P42858); test: direct ELISA, coated at 5 µg/ml
GST-HttExon1Q49 (human) [2] = target: GST-HttExon1Q49 (human) (UniProt P42858); test: direct ELISA, coated at 5 µg/ml
GST-HttExon1Q49 (human), sequence (P42858 1-88, change not shown): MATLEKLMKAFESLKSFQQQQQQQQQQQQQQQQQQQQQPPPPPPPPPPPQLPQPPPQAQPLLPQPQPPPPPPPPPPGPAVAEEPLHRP

[3] = target: T1, BSA-coupled polyP repeat peptide of Htt Exon1 (human, also: coupled to BSA); test: direct ELISA on BSA-coupled Htt Exon1 peptides
T1 peptide: PPPPPPPPPPP
Protocol: (§1) To determine the half maximal effective concentration (EC₅₀) of recombinant human-derived HTT antibody NI-302.33C11 to BSA-coupled peptide fragments of the huntingtin Exon 1 direct ELISA with BSA-coupled Htt Exon1 domain peptides was performed.
(§2) In brief, 96 well microplates (Corning) were coated with BSA-coupled synthetic peptides (Schafer-N, Denmark) of the N-terminal amino acid 1-19 ([…], SEQ ID No.: 93), the P-rich domain sequence ([…], SEQ ID No.: 94), the polyP repeat sequence ([…], SEQ ID No.: 95) or the 14 C-terminal amino acids ([…], SEQ ID No.: 96) or with the full lengths GST-HD49 Exon 1 protein at […] in coating buffer (15 mM Na2CO3, 35 mM NaHCO₃, pH 9.42). Non-specific binding sites were blocked for 1 h at RT with PBS/0.1% Tween®-20 containing 2% BSA (Sigma-Aldrich, Buchs, Switzerland). Primary antibodies were diluted to the indicated concentrations and incubated 1 h at RT. Binding was determined using donkey anti-human IgG Fcγ-specific antibody conjugated with HRP, followed by measurement of HRP activity in a standard colorimetric assay and the EC₅₀ values were estimated by a non-linear regression using GraphPad Prism software (San Diego, USA). […]

[4] = target: HD49: huntingtin Exon1 protein with 49 polyQ repeats, GST tag cleaved off, aggregation reaction (human, UniProt P42858); test: direct ELISA, coated at 5 µg/ml
Protocol: (§3) To determine the half maximal effective concentration (EC₅₀) of recombinant human-derived HTT antibody […] to soluble and aggregated huntingtin Exon1 proteins with 21 or 49 polyQ repeats direct ELISA was performed. In brief, 96 well microplates (Corning) were coated with either GST-HD21, GST-HD49 or aggregated HD21 or HD49 at a concentration of 5 μg/ml in coating buffer (15 mM Na2CO3, 35 mM NaHCO₃, pH 9.42). Nonspecific binding sites were blocked for 1 h at RT with PBS/0.1% Tween®-20 containing 2% BSA (Sigma-Aldrich, Buchs, Switzerland). Primary antibodies were diluted to the indicated concentrations and incubated 1 h at RT. Binding was determined using either a donkey anti-human IgG Fcγ-specific antibody conjugated with HRP or a goat anti-mouse IgG (H+L)-specific antibody conjugated with HRP, followed by measurement of HRP activity in a standard colorimetric assay. Subsequently, EC₅₀ values were estimated by a non-linear regression using GraphPad Prism software (San Diego, USA).
(§4) To determine the half maximal effective concentration (EC₅₀) of recombinant human-derived HTT antibodies NI-302.35C1 and NI-302.72F10 to soluble and aggregated HTT Exon1 proteins with 21 or 49 polyQ repeats direct ELISA and EC50 determination was performed as described in Example 6, supra.
(§5) To determine the half maximal effective concentration (EC₅₀) of recombinant human-derived HTT antibody NI-302.7D8 to soluble and aggregated HTT Exon1 proteins with 21 or 49 polyQ repeats direct ELISA and EC50 determination was performed as described in Example 6, supra.

[5] = target: HD21: huntingtin Exon1 protein with 21 polyQ repeats, GST tag cleaved off, aggregation reaction (human, UniProt P42858); test: direct ELISA, coated at 5 µg/ml
Protocol: as §3, §4, §5

GST-HttExon1Q49 (human) [6] = target: GST-HttExon1Q49 (human) (UniProt P42858); test: direct ELISA
[7] = target: T2, C-terminal peptide of Htt Exon1 coated directly to the plate (not coupled to BSA) (human); test: direct ELISA, peptide coated directly
T2 peptide: PPGPAVAEEPLHRP

[8] = target: T3, BSA-coupled C-terminal peptide of Htt Exon1 (the 14 C-terminal amino acids) (human, also: coupled to BSA); test: direct ELISA on BSA-coupled Htt Exon1 peptides
T3 peptide: PPGPAVAEEPLHRP
Protocol: as §1, §2

GST-HttExon1Q21 (human), sequence (P42858 1-88, change not shown): as above

B1: NI-302.63F3 (antibody, V domains shown)
VH: QVQLVQSGSAFKKPGTSVKVSCKASGYTFETRSMNWVRQAPGQGLEYMGWINTNTGNRTYVQAFRGRFVFSLDTSVSTAYLQISNLKTEDTAVYYCARGAGGGYWFDSWGQGTLVTVSS
VL: DIQMTQSPDSLAVSLGERATINCKSNQSLFYSSNNNNYLAWYQHKSGQPPKLLVYWGSTRESGVPDRFSGSGSGTDFTLTISSLQAEDVAIYYCHQYYHNPYTFGQGTKLEIK
Q: Which EC50 [1] does the source give for B1 here?
A: Its EC50 is 0.2 to 0.4 nM.

B2: NI-302.15F9 (antibody, V domains shown)
VH: EVQLVESGGGLVTPGGSLRLSCEASGFLFKNSSMNWVRQTPGKGLEWVSSIDTSATNYKYYADSVKGRFTISRDDATNSLYLQMNSLRADDTATYYCARGYYTPRDFDYWGQGTLVTVSS
VL: DVVMTQSPQTLSVSLGQAASISCRSSQSLLYRDNNTYLNWFHQRPGQSPRRLIYRASDRDSGVPDRFSGGGSGTDFTLKISGVEAEDVGTYYCMQGTHWPRTFGQGTKVEIK
Q: How did the EC50 [1] turn out when B2 was run?
A: Its EC50 is 5 nM and 35 nM.

Q: And the fold preference of HD49 vs. HD21 [1]?
A: The fold preference of HD49 vs. HD21 was 5 fold.

B3: NI-302.33C11 (antibody, V domains shown)
VH: EVQLVESGGGVVQPGNSLRLSCAASGFRFSDFGMHWVRQAPGKGLEWLALIWYDGGYKYYADSVKGRFTISRDNSKNTMFLQMNSLRAEDTAVYYCATHLEYCSRTTCYLGHWGQGTLVTVSS
VL: DIQLTQSPSFLSASVGDTVTFTCRASQGISDYLAWFQQKPGIAPKLLIYAASTLQTGVPSRFSGSGSGTEFTLTIRSLQSEDFGTYYCQQLKTYPYTFGQGTKVEIK
Q: Which EC50 (GST-HttExon1Q21 (human)) does the source give for B3 here?
A: The EC50 was 0.1 nM.

Q: What about the EC50 (GST-HttExon1Q49 (human) [2]) of the same binder?
A: The EC50 was 0.1 nM.

Q: What about the EC50 [3] of the same binder?
A: Its EC50 is 0.03 nM.

Q: What about the EC50 [4] of the same binder?
A: Its EC50 is roughly 0.1 nM.

Q: What about the EC50 [5] of the same binder?
A: Its EC50 is roughly 0.1 nM.

Q: What about the EC50 (GST-HttExon1Q49 (human) [6]) of the same binder?
A: Its EC50 is 0.03 nM.

B4: NI-302.35C1 (antibody, V domains shown)
VH: EVQLVESGGNLVQPGGSLRLSCTASGFTFSITALSWVRQAPEKGPQWVSAITGNAYGTYYADSVKGRFTISRDNAKNTLYLQMNGLRAEDTAIYYCVKGIASDSSGYSAFWGPGTLVTVSS
VL: EIVLTQSPATLSLSPGERATLSCRASQSVDNQFAWYQQKPGQAPRLLIYDASRRAPGIPDRFSGSGSGTDFTLTISSLEPEDFAIYYCQHRYTWLYTFGQGTRLEIK
Q: With B4 as the binder, how does the EC50 [7] read?
A: Its EC50 is greater than 100 nM.

Q: And the EC50 [8]?
A: The EC50 was roughly 0.7 nM.

Q: And the EC50 [4]?
A: Its EC50 is roughly 2.7 nM.

Q: What about the EC50 (GST-HttExon1Q49 (human) [6]) of the same binder?
A: Its EC50 is 3.2 nM.

B5: NI-302.7D8 (antibody, V domains shown)
VH: QVQLVQSGSELKKPGASVKVSCKASGYNFNNYAINWLRQAPGQGLEWMGWINTITGHPTYAQGFKGRFVFSLDTSVSTAYLQISSLKPEDTAVYYCARTYSNYGEFDYWGQGTLVTVSS
VL: QSALTQPASVSGSRGQSITISCTGTSSDVGSYNLVSWYQQYPGKAPKLIIHEGSERPSGVSNRFSGSKSGNTASLTISGLQAEDEADYYCCSYAGTTTFVLFGGGTKLTVL
Q: With B5 as the binder, how does the EC50 (GST-HttExon1Q49 (human) [2]) read?
A: Its EC50 is 6 nM.

Q: What about the EC50 [4] of the same binder?
A: The EC50 was 17 nM.
